Experimental data as given in patent US20050089932A1, “Novel proteins with targeted binding” (Avidia Research Institute, priority 2001, published 2005).
Blank lines part the entries; values can stand above or below the molecule they belong to.

Assays:
[1] = commercial drugs; cited from earlier work
human PBMC = assay: PBMC assay on human cells; type: cell-based
Method: (§1) Efficacy assays were performed using human and monkey PBMC as described above. CD28 results in PBMC assays:
(§2) In order to assay the ex-vivo efficacy of monomers, they were tested on isolated peripheral blood lymphocytes (PBMC). […]. Monomer protein was added in varying concentrations to each culture and incubation occurred for 3 days at 37° C. in a CO2 containing atmosphere. During the last 9 hours, cultures were pulsed with 1 uCi per well of ^3H thymidine (ICN, Costa Mesa, Calif.) and the incorporation of radioactivity was measured on a Wallac Trilux Microbeta scintillation counter (Perkin Elmer, Boston, Mass.). See, FIG. 23.

monkey PBMC = assay: PBMC assay on monkey cells; type: cell-based, cynomolgus monkeys
Method: as §1, §2

[2] = target: T1, recombinant human FcERI protein (human, UniProt P12319 26-205, limits assumed); assay: Biacore, human IgE on CM5 chip
T1 construct: also called recombinant soluble IgE receptor; IgE receptor R1
T1 sequence (looked up): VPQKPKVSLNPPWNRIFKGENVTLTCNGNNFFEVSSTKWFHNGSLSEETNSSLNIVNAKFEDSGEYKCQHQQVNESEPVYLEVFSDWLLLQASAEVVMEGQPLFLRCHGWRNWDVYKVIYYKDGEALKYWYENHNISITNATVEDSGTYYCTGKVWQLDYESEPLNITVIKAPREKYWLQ
Excerpt: (§3) Human IgE was immobilized to a CM5 chip (BiaCore) using standard NHS/EDC methods. Sample proteins were dialyzed into HBS buffer overnight, and the dialysis buffer was used as a running buffer for the experiment. Sample proteins were run successively over IgE or ethanolamine coated flow cells, and the data analyzed using the BiaEvaluation software package.

human IgE = human IgE (Homo sapiens, UniProt P01854); assay: Biacore affinity measurements on immobilized human IgE; type: binding; settings: IgE on CM5 chip
Excerpt: as §3

Molecule: Enbrel
Human T1/2 [1]: 103 h

Molecule: Rituxan: CD20 Antibody
Human T1/2 [1]: 78 h

Molecule: Remicade: TNFa Antibody
Human T1/2 [1]: 216 h

B1: CD28 10: CD28 trimer, sequence >CD28-A10 (protein)
chain: CGPGRFQCESGQCVPATWVCDGDDDCADGSDEKSCATTAPTCESNQFQCGSGQCLPGTWRCDGVNDCADSSDETGCGRPGPGATSAPAACGPGRFQCNNGNCVPQTLGCDGDNDCGDSSDEANCSAPASEPPGSL
inhibition (human PBMC): inhibition = 81%
inhibition (monkey PBMC): inhibition = 81%

Kd [2]: 450 nM
B2: human IgE (antibody)
chain: ASTQSPSVFPLTRCCKNIPSNATSVTLGCLATGYFPEPVMVTWDTGSLNGTTMTLPATTLTLSGHYATISLLTVSGAWAKQMFTCRVAHTPSSTDWVDNKTFSVCSRDFTPPTVKILQSSCDGGGHFPPTIQLLCLVSGYTPGTINITWLEDGQVMDVDLSTASTTQEGELASTQSELTLSQKHWLSDRTYTCQVTYQGHTFEDSTKKCADSNPRGVSAYLSRPSPFDLFIRKSPTITCLVVDLAPSKGTVNLTWSRASGKPVNHSTRKEEKQRNGTLTVTSTLPVGTRDWIEGETYQCRVTHPHLPRALMRSTTKTSGPRAAPEVYAFATPEWPGSRDKRTLACLIQNFMPEDISVQWLHNEVQLPDARHSTTQPRKTKGSGFFVFSRLEVTRAEWEQKDEFICRAVHEAASPSQTVQRAVSVNPGK
notes: Immobilized on plates or on a CM5 chip; variable regions and light chain not described

ka (human IgE): 8.4 × 10^3
kd (human IgE): 3.8 × 10^−3
B3: FcERI: recombinant human FcERI protein, the IgE receptor (protein)
chain: T1 sequence (looked up)
